Molecular target: T1, EBOV sGP (Mayinga) (Zaire ebolavirus, Mayinga, GenBank …, UniProt P60170)
T1 construct: source: FreeStyle-293-F, transiently transfected, purified (Strep-Tactin, SEC)
Experiment: ELISA
Conditions: both partners purified

T1 sequence (P60170 33-314): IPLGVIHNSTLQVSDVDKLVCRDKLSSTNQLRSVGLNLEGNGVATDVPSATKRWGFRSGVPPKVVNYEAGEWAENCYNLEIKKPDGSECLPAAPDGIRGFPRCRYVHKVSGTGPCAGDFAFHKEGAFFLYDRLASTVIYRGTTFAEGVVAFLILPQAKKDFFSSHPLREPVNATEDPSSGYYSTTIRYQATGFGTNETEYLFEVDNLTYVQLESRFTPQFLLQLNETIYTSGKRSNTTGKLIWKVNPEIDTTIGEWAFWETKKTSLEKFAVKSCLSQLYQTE

B1: EBOV-548 (antibody, V domains shown)
VH: QVQVEESGGGVVQPGGSLRLSCAASGFMFSNYGMHWVRQAPGKGLEWMAFIRYDDSKKFYADSVKGRFTISRDNSKNTLYLQMNSLRAEDTALYYCAKELLQVYTSAWGEGHSYYYALDVWGLGTAVTVSS
VL: DIQMTQSPSSVSASVGDRVTITCRASQDISNWLAWYQQKPGKAPELLIYTASILQSGVSSRFSGSGSGTDFTLTISSLQPEDSATYYCQQGKSFPYTFGQGTKLEIK
B1: binds.

From paper PMC8133395 (Cell reports, 2021)
